According to the DeepSol protein solubility set:

test: soluble on expression in E. coli; label from the status in PepcDB or PDB records

Soluble on expression in E. coli, not soluble:
MGSDKIHHHHHHMSLSRINIGSFRNITSASLQPCDGLNLIYGQNGSGKTSILEAIYFLGMGRSFRSHLSQRVINNDDDKLTLFAHLIDADRDCKIGLRRHRSGEIEVKIDGEKVKRLSTLAETLPIQVITPESFSLLFEGPKARRQFIDWGAFHSDPHFYQAWVNTRKVLKQRNQLLRNQSSYNQIQFWDKELVRYAEQVTDIRNQYVDSLNVLLKGIIGVFLPRIDIKVSFTRGWDSKTDFAQLLENQYSRDLAAGNTGSGPHKADLRLRVGNLPAQDALSRGQLKLLVCALRIAQGKLLKQQLDKNSIYLVDDLPSELDAQHRQLLLQLLTETGAQIFVTAIDPQAIVDSLSSPPNRMFHVEQGLVTVIE
MGSDKIHHHHHHMSMDIVERINKLKEEKNAVILAHNYQPKEIQKIADFLGDSLELCIKAKETDADIIVFCGVDFMGESAKILNPEKKVLMPEIEGTQCPMAHQLPPEIIKKYRELYPEAPLVVYVNTTAETKALADITCTSANADRVVNSLDADTVLFGPDNNLAYYVQKRTDKKVIAIPEGGGCYVHKKFTIDDLKRVKSKYPNAKVLIHPECSPELQDNADYIASTSGILRIVLESDDEEFIIGTEVGMINRLEIELEKLGKKKTLIPLRKDAICHEMKRITLEKIEKCLLEERYEIKLEKEIIEKAQKAIERMLRI
MGSDKIHHHHHHMSMNISGLGNAYSGVNTNSKQYKALKEKGWLEGVIQNEAMMSPEGKMIYEIFGGRDTIVNNLMKQFDSDGDLLNANGVAGMDVTGKGTSWQKLTNVSEEYRQKMFDNVKKEFIQENGVSNGDTTKRSDIFKDYQLSVNKDKRLSGTWTLEQYEGQYRSAMYAAVKAANPNWKPGQKFDTSILDNVTRESAEATLVKNGNRLVRNSIDVSV
MGSDKIHHHHHHMSNEQLADLTQPQRDRLAFVELRVRFIGEIRRQDLVTRFGIQSAAASRDLALYKELAPGNIDYDSKGKSYVLGPDFRPVFDFPPERVLSWLTQGFGDGEPMRLKAWVASESPSRLTHPDLDVLASVTRAIHQECPLGIEYHSISSGRTEREIVPFALIDNGLRWHVRAFDRKSQEFRDFVITRIKRPVLIRDAEVQSHERSDQDIQWTRIVELEMVPHPDQPRPEITEMDYGMVRGSLRMKLRAATAGYILRQWSVDCSPDHSLRGYEFRLWLKDHLALYGVKNAVLAPGYRSPDQNKGEQ
MGSDKIHHHHHHMSNFGRQIEAFRAVMLTGGMTTAAETLRITQPAISRLIRDLEDDLKIALFHRRGNQITPTVEATAFLAEVERSYLGMDQLRTFAVDLRNSLTGSLRIAALPAMALGFMPYCLAKFSGTRPKLSITLDGIPSHLVLERVAGGQFELGFAAVPADRPMLNTTPIKARAVVVMPEGHPLAKNETVSADQLRNERIVMLDRGNYLRHTIERALGTRAGSPGAIETPLSAIACSFVARGLGVTIIDAFTAINFLGRGIEARLLVPELDFGFAMVTAQQRPMSQLARQFAQEIHLLAEEYQSPIFG
MGSDKIHHHHHHMSNHAIPARLQLRHITKRYPGCLANDAVDLTIQPGEIHALLGENGAGKSTLMKIIYGVTQPDAGSIIWQGQAQIMRNPAQARSLGIGMVFQHFSLFETLSVAQNIALAMGAAAGTPRQLEPRIREVSQRYGMAVEPQRLVHSLSIGERQKVEIIRCLMQDIHLLILDEPTSVLTPQEAEELFVTLRHLASEGCSILFISHKLGEVRALCHSATVLRNGKVSGHCIPAECSDLELARLMVGDAEGLTAHYEKVSGGAAFLQVDRLSWHNPDPFGCSLKDLSLEVCSGEIVGIAGVAGNGQDELLALLSGEQTLPHAQAATLRFANTPVGHLRPDARRKRGLAFVPAERLGHGAVPELSLADNALLTAFQQGLVSNGLIQRGKARALADEIIRRFAVKTPDAQAPARSLSGGNLQKFILGREILQNPKLLIAAHPTWGVDVGAAAAIHRALIALRDAGAAILVISEDLDELFQISDRLAALSGGQLSDLIPTEQTSTVQIGGWMAGQFDHSQTQAHTPG
MGSDKIHHHHHHMSNKLPALHLFGIFEAAARHENFKQAAAELFITPSAVSHQIKALEAFLGFELFQRKSRGVALNAAGKVYLHYVQQGINKLEQGTKIVSNKFSSPSLKISTFTTMASNVIIPTLSDFQQQHPTIDIRIETGMNLTDLRYDDCDLAIRMGKGDWPGVVVKKLLNLTAHAVCSAEFAKKHKLTSPEQISQVPLIDLANMNNIWRTWAGAMQLPEMQYQHKLTFGNYDASLQAAEQGLGLALAIMPIEHALIERNLLVLPFEKSTNFDQSLYAVYREEDQNRNDIHCFLDWLTQSPNLKPI
